Measurements taken from US20030124119A1 (published 2003).
Numbering of substitutions follows the chain as printed.

B1: mouse monoclonal antibody #23-57-137-1 against human PTHrP (1-34) (antibody, V domains shown)
VH: EVQLVESGGDLVKPGGSLKLSCAASGFTFSSYGMSWIRQTPDKRLEWVATISSGGSYTYYPDSVKGRFTISRDNAKNTLYLQMSSLKSEDTAMFYCARQTTMTYFAYWGQGTLVTVSA
VL: QLVLTQSSSASFSLGASAKLTCTLSSQHSTYTIEWYQQQPLKPPKYVMDLKQDGSHSTGDGIPDRFSGSSSGADRYLSISNIQPEDEAMYICGVGDTIKEQFVYVFGGGTKVTVLG
notes: Mouse antibody from the hybridoma (FERM BP-5631); mouse λ L-chain; tested as hybridoma culture supernatant
B2: humanized #23-57-137-1 antibody having L-chain version “s” (H-chain version “a”) (antibody, V domains shown)
VH: QVQLVESGGGVVQPGRSLRLSCAASGFTFSSYGMSWVRQAPGKGLEWVATISSGGSYTYYPDSVKGRFTISRDNSKNTLYLQMNSLRAEDTAVYYCARQTTMTYFAYWGQGTLVTVSS
VL: QLVLTQSPSASASLGASVKLTCTLSSQHSTYTIEWYQQQPEKGPKYVMDLKQDGSHSTGDGIPDRFSGSSSGAERYLTISSLQSEDEADYICGVGDTIKEQFVYVFGGGTKLTVLG
notes: also called hMBC1Lsλ
B3: mouse FR1,2/human FR3,4 hybrid antibody (L-chain m/hMBC1Ldλ, H-chain hMBC1HcDNA) (antibody, V domains shown)
VH: B2 VH
VL: QLVLTQSSSASFSLGASAKLTCTLSSQHSTYTIEWYQQQPLKPPKYVMDLKQDGSHSTGDGIPDRFSGSSSGAERYLTISSLQSEDEADYICGVGDTIKEQFVYVFGGGTKLTVL
notes: Human Cγ1 and human λ C-regions
B4: humanized #23-57-137-1 antibody having L-chain version “j” (H-chain version “a”) (antibody, V domains shown)
VH: B2 VH
VL: B2 VL with V47L, I91Y
notes: Human Cγ1 and human λ C-regions; also called hMBC1Ljλ
B5: humanized #23-57-137-1 antibody having L-chain version “l” (H-chain version “a”) (antibody, V domains shown)
VH: B2 VH
VL: B2 VL with I91Y
notes: Human Cγ1 and human λ C-regions; also called hMBC1Llλ
B6: antibody having both a humanized H-chain version “a” and a chimeric L-chain (antibody, V domains shown)
VH: B2 VH
VL: B1 VL
notes: Human Cγ1 H-chain C-region
B7: human FR1/mouse FR2,3,4 hybrid antibody (L-chain hmmMBC1L(λ), H-chain hMBC1HcDNA) (antibody, V domains shown)
VH: B2 VH
VL: B3 VL with S8P, F12A, A18V, E74D, T78S, S81N, L82I, S84P, D89M, L112V
notes: Human Cγ1 and human λ C-regions; also called FR1/FR2 hybrid antibody
B8: humanized #23-57-137-1 antibody having L-chain version “q” (H-chain version “a”) (antibody, V domains shown)
VH: B2 VH
VL: B2 VL with V47L
notes: Human Cγ1 and human λ C-regions; also called hMBC1Lqλ
B9: humanized #23-57-137-1 antibody having L-chain version “m” (H-chain version “a”) (antibody, V domains shown)
VH: B2 VH
VL: B2 VL with K45R, V47L, I91Y
notes: Human Cγ1 and human λ C-regions; also called hMBC1Lmλ
B10: mouse FR1,2/human FR3,4 hybrid antibody (L-chain m/hMBC1Laλ, H-chain hMBC1HcDNA) (antibody, V domains shown)
VH: B2 VH
VL: B3 VL with I91Y
notes: as for B3
B11: humanized #23-57-137-1 antibody having L-chain version “t” (H-chain version “a”) (antibody, V domains shown)
VH: B2 VH
VL: B2 VL with K45R
notes: Human Cγ1 and human λ C-regions; also called hMBC1Ltλ
B12: humanized #23-57-137-1 antibody having L-chain version “o” (H-chain version “a”) (antibody, V domains shown)
VH: B2 VH
VL: B2 VL with K45R, I91Y
notes: Human Cγ1 and human λ C-regions; also called hMBC1Loλ
B13: humanized #23-57-137-1 antibody having L-chain version “r” (H-chain version “a”) (antibody, V domains shown)
VH: B2 VH
VL: B2 VL with K45R, V47L
notes: also called hMBC1Lrλ
B14: chimeric #23-57-137-1 antibody with L-chain κ chain C-region (antibody, V domains shown)
VH: B1 VH
VL: B1 VL
notes: Mouse V-regions with human Cγ1 H-chain C-region and human κ C-region; expressed in COS-7 cells; also called chimeric antibody; MBC1HcDNA/pCOS1 and MBC1L(κ)/neo
B15: chimeric #23-57-137-1 antibody with L-chain λ chain C-region (antibody, V domains shown)
VH: B1 VH
VL: B1 VL
notes: expressed in COS-7 cells; also called chimeric antibody; MBC1HcDNA/pCOS1 and MBC1L(λ)/neo

Each binder was assayed against T1, human PTHrP (1-34) (human) (assay: solid phase RIA of hybridoma culture supernatants).
T1 construct: Coated on ELISA plates (Peptide Research Institute) and used in RIA screening and the cAMP assay
Experimental: The screening of hybridomas was performed by determining the presence of PTHrP-recognition antibodies in the culture supernatant of the wells in which cell growth had been observed in HAT medium, by solid phase RIA method. The hybridomas were collected from the wells in which the binding ability to the PTHrP-recognition antibodies had been confirmed. The hybridomas thus obtained was suspended into RPMI-1640 medium containing 15% FCS supplemented with OPI-supplement (Sigma), followed by unification of the hybridomas by limiting dilution method.

binding result	Binder
binds	B1

The binders below were run against T1, human PTHrP (1-34) (assay: ELISA, plate coated with 1 µg/ml human PTHrP (1-34)).
Experimental: An ELISA plate for the determination of antigen-binding ability was prepared as follows. Each well of a 96-well ELISA plate was coated with 100 μl of a coating buffer supplemented with 1 μg/ml of human PTHrP (1-34) (Peptide Research Institute), and then blocked with 200 μl of a dilution buffer. Each well was added with each of the serial dilutions of the COS-7 cell culture supernatant in which each of the chimeric antibodies had been expressed, or added with each of the serial dilutions of each of the chimeric antibodies per se in a purified form. After the plate was incubated at room temperature and washed with PBS-Tween 20, each well of the plate was added with 100 μl of a solution of alkaline phosphatase-conjugated goat anti-human IgG antibodies (TAGO). After the plate was incubated at room temperature and washed with PBS-Tween 20, each well of the plate was added with 1 mg/ml of a substrate solution (“Sigma 104”, p-nitrophenylphosphoric acid, SIGMA). The solution was measured on its absorbance at 405 nm using Microplate Reader (Bio Rad).
An ELISA plate for determining antigen-binding ability was prepared as follows. Each well of a 96-well ELISA plate (Maxisorp, NUNC) was coated with 100 μl of a coating buffer containing 1 μg/ml of human PTHrP (1-34) and then blocked with 200 μl of a dilution buffer. Subsequently, each well was added with each of the serial dilutions of the COS-7 cell culture supernatant in which each of the hybrid antibodies and humanized antibodies was expressed, or added with each of the serial dilutions of each of the hybrid antibodies and humanized antibodies in a purified form. The plate was incubated at room temperature and washed with PBS-Tween 20. Subsequently, each well was added with 100 μl of alkaline phosphatase-conjugated goat anti-human IgG antibody (TAGO). The plate was incubated at room temperature and washed with PBS-Tween 20. Subsequently, each well was added with 1 mg/ml of a substrate solution (“Sigma 104”, p-nitrophenylphosphoric acid, SIGMA). The solution was measured on its absorbance at 405 nm using Microplate Reader (Bio Rad).

binding result	Binder
binds	B2
binds	B3
binds	B4
binds	B5
binds	B6
binds	B7
binds	B8
binds	B9
binds	B10
binds	B11
binds	B12
binds	B13
binds	B14
binds	B15
